In patent publication US7265202 (University of California, dated 2007):
Where a chain is given by its changes, count along the chain named.

Tests used:
[1] = molecular target: STAT3 in cytokine-treated human cells (CNTF, OM or IL6) (human, UniProt P40763 2-770, limits assumed, tyrosine phosphorylated after cytokine treatment (site not given)); test: co-immunoprecipitation with anti-PIAS1n from HepG2 cells untreated or treated with IL6 or IFN-γ, anti-STAT3 blot
[2] = molecular target: STAT2 in IFN-treated human Daudi B cells (human, UniProt P52630 1-851); test: co-immunoprecipitation with anti-PIAS1n from IFN-treated Daudi B cells, immunoblot with anti-STAT1 and anti-STAT2
STAT2 in IFN-treated human Daudi B cells, sequence (P52630 whole entry): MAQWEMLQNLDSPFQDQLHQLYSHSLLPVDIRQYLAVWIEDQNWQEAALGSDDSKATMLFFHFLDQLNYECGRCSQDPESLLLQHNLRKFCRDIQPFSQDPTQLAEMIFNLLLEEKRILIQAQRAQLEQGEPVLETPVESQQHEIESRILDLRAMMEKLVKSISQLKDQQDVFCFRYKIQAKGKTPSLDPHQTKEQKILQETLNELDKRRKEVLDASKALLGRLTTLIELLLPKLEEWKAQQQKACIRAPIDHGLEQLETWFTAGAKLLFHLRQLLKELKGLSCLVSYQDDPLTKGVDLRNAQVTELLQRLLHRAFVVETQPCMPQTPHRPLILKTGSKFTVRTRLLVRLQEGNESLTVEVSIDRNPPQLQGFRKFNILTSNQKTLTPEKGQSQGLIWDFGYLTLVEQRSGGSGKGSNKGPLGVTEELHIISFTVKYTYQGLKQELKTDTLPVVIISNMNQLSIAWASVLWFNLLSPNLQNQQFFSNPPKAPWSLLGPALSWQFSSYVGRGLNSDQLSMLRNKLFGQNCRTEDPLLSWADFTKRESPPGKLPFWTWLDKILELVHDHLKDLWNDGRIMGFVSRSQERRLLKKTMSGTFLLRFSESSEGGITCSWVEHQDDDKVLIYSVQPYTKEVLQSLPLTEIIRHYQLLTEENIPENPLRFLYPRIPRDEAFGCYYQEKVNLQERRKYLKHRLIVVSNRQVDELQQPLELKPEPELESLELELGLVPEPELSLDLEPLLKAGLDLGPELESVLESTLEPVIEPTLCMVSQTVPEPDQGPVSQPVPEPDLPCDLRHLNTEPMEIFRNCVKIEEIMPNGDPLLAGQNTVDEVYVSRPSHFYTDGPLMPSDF
Method: Daudi cells were treated with […] for the times indicated. Whole cell extracts were prepared and one half of these extracts were used for immunoprecipitation with anti-PIAS1n (left panel). Immunoprecipitation was carried out as described in (A) and the filter was probed with anti-STAT1 and anti-STAT2. The same filter was washed and reprobed with anti-PIAS1n (lower panel). The other half of protein extracts were subjected to immunoprecipitation with anti-STAT1 (right panel). The filter was probed with a mixture of anti-STAT1 and anti-STAT2 antibodies. p-STAT1: phosphorylated STAT1.
Human Daudi B cells were untreated or treated with IFN-α for various time periods. Protein extracts were prepared and subjected to immunoprecipitation with anti-PIAS1n followed by immunoblot with both anti-STAT1 and STAT2 antibodies. While STAT1 was associated with PIAS1 in IFN-treated cells, STAT2 was absent in PIAS1 immunoprecipitates (FIG. 8B).

[3] = molecular target: T1, STAT1 in IL6-treated murine M1 cells (murine, UniProt P42225 2-749, the filing says IL6 stimulation can induce tyrosine phosphorylation of STAT1); test: co-immunoprecipitation with anti-PIAS3c from M1 cells, blot reprobed with antibody to STAT1
T1 sequence (looked up): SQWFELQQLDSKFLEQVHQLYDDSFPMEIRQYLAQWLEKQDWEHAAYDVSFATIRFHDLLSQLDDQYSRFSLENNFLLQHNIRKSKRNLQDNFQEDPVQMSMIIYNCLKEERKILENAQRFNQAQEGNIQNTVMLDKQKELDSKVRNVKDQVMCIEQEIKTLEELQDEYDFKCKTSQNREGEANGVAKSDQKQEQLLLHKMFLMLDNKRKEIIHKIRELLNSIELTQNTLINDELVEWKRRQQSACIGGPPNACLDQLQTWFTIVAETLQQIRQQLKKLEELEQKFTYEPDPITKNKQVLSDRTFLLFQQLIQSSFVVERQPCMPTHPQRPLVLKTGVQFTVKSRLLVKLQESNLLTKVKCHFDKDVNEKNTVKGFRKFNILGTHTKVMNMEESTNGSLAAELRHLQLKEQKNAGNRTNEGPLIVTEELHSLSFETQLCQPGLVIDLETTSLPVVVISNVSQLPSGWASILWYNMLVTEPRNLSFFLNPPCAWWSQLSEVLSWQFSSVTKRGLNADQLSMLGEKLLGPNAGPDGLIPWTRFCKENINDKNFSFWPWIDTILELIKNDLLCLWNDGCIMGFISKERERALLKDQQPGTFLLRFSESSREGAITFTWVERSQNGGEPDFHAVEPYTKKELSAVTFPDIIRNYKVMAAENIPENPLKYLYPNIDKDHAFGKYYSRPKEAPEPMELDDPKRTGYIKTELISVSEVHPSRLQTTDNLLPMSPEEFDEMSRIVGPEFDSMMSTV
Method: To identify which STAT protein interacts with PIAS3, protein extracts were prepared from murine myeloblast M1 cells, which were untreated or treated with IL6. Proteins immunoprecipitated with anti-PIAS3c were analyzed by protein immunoblot with anti-STAT3. STAT3 was present in a PIAS3 immunoprecipitate from IL6 treated M1 cells but not in an immunoprecipitate from untreated M1 cells (FIG. 2A). […] IL6 stimulation can induce tyrosine phosphorylation of STAT1 as well as STAT3 (Sadowski et al. (1993)). The protein blot was therefore washed and reprobed with antibody to STAT1. STAT1 was not present in PIAS3 immunoprecipitates (FIG. 2A). Furthermore, PIAS3 was not found to be associated with STAT1 in a number of cell lines treated with interferon-γ.
Protein extracts from M1 cells, untreated (−) or treated with IL6 for 10 min (+), were subjected to immunoprecipitation (IP) with anti-PIAS3c. The blot was probed with anti-STAT. The same blot was then reprobed with anti-PIAS3c. The filter was washed and reprobed with anti-STAT1.

[4] = molecular target: T2, STAT1 in interferon-treated human cells (human, UniProt P42224 2-750, limits assumed, phosphotyrosine at Tyr-701 (IFN-induced)); test: co-immunoprecipitation with anti-PIAS3c from HepG2 cells untreated or treated with IL6 or IFN-γ, anti-STAT1 blot
T2 construct: also called p-STAT1; wild type STAT1
T2 sequence (looked up): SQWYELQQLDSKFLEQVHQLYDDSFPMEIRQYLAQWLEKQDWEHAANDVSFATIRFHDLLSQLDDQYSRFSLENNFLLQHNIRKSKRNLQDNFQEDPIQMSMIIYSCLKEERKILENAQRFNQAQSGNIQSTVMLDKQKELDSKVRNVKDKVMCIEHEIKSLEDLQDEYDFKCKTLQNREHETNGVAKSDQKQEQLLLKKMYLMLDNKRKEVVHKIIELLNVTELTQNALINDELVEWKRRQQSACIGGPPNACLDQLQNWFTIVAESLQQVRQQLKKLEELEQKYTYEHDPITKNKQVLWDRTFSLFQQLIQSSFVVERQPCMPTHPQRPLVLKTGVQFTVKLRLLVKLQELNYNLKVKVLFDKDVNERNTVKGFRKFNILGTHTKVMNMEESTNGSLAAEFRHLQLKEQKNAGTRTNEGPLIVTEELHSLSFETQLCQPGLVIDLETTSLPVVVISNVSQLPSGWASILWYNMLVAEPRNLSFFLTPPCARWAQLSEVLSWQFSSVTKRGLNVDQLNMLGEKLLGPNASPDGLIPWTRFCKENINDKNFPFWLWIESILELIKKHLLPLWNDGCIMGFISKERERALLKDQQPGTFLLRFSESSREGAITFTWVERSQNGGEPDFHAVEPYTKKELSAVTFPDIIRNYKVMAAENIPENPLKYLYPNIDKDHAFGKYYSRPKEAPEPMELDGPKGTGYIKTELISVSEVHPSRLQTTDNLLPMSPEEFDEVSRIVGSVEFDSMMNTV

STAT3 in cytokine-treated human cells (CNTF, OM or IL6), sequence (P40763 2-770 limits assumed): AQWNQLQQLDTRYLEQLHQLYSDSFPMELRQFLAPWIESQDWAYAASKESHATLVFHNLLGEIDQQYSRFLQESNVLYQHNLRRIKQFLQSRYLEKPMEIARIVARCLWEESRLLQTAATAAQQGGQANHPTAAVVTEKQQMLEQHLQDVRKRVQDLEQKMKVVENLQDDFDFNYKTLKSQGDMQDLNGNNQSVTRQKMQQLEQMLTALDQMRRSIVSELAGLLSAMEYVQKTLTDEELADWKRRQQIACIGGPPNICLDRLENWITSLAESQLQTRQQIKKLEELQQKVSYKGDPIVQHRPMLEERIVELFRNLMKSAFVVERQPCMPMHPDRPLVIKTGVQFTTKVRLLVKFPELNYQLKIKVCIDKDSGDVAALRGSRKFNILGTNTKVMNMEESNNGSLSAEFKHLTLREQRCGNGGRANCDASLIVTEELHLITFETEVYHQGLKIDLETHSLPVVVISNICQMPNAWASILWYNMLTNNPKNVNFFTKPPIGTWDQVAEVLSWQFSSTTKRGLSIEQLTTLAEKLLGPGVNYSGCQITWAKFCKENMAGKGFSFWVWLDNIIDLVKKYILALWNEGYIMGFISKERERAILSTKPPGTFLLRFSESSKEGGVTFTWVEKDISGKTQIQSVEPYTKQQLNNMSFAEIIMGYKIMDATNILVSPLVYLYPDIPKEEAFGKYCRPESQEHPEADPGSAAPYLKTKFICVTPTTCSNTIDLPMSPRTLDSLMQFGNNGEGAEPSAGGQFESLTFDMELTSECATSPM

B1: human PIAS1 (other)
chain: ADSAELKQMVMSLRVSELQVLLGYAGRNKHGRKHELLTKALHLLKAGCSPAVQMKIKELYRRRFPQKIMTPADLSIPNVHSSPMPATLSPSTIPQLTYDGHPASSPLLPVSLLGPKHKLELPHLTSALHPVHPDIKLQKLPFYDLLDELIKPTSLASDNSQRFRETCFAFALTPQQVQQISSSMDISGTKCDFTVQVQLRFCLSETSCPQEDHFPPNLCVKVNTKPCSLPGYLPPTKNGVEPKRPSRPINITSLVRLSTTVPNTMCSWTAEIGRNYSMAVYLVKQLSSTVLLQRLRAKGIRNPDHSRALIKEKLTADPDSEIATTSLRVSLLCPLGKMRLTIPCRALTCSHLQCFDATLYIQMNEKKPTWVCPVCDKKAPYEHLIIDGLFMEILKYCTDCDEIQFKEDGTWAPMRSKKEVQEVSASYNGVDGCLSSTLEHQVASHHQSSNKNKKVEVIDLTIDSSSDEEEEEPSAKRTCPSLSPTSPLNNKGILSLPHQASPVSRTPSLPAVDTSYINTSLIQDYRHPFHMTPMPYDLQGLDFFPFLSGDNQHYNTSLLAAAAAAVSDDQDLLHSSRFFPYTSSQMFLDQLSAGGSTSLPTTNGSSSGSNSSLVSSNSLRESHSHTVTNRSSTDTASIFGIIPDIISLD
notes: also called hPIAS1
binding result [1]: no binding
binding result [2]: no binding

B2: murine PIAS3 (other)
chain: MVMSFRVSELQVLLGFAGRNKSGRKHELLAKALHLLKSSCAPSVQMKIKELYRRRFPRKTLGPSDLSLLSLPPGTSPPVHPDVTMKPLPFYEVYGELIRPTTLASTSSQRFEEAHFTFALTPQQLQQILTSREVLPGAKCDYTIQVQLRFCLCETSCPQEDYFPPNLFVKVNGKLCPLPGYLPPTKNGAEPRGPAVRSTSHPWLDSQPLSPTPSLLIGHLSLDGITPCPCLVRQLTAGTLLQKLRAKGIRNPDHSRALIKEKLTADPDSEVATTSLPGVTHVPARKMRLTVPCRALTCAHLQSFDAALYLQMNEKKPTWTCPVCDKKAPYESLIIDGLFMEILNSCSDDDEIQFMEDGSWCPMKPKKEASEVCPPPGYGLDGLQYSAVQEGIQPESKKRVEVIDLTIESSSDEEDLPPTKKHCSPTSAAIPALPGSKGALTSGHQPSSVLRSPAMGTLGSDFLSSLPVHEYPPAFPLGADIQGLDLFSFLQTESQQYGPSVIISLDEQDTLGHFFQYRGTPSHFLGPLAPTLGSCHGSSTPAPPPGRVSSIVAPGSSLREGHGGPLPSGPSLTGCRSDVISLD
notes: Endogenous protein immunoprecipitated with anti-PIAS3c from M1 cell extracts; also called mPIAS3; mouse PIAS3
binding result [3]: no binding

B3: human PIAS3 (other)
chain: B2 chain with H219M, D349C, H422Q, P425V, P434L, A439V
notes: Endogenous protein immunoprecipitated with anti-PIAS3c from human HepG2 cells; also called hPIAS3
binding result [4]: no binding
